Experiment [1] deals with antigen of Daudi B lymphoblastoid cells to which the mAbs of the invention bind. Put plainly: FACS double labelling, peripheral blood lymphocytes of colon carcinoma patients.
The target is the same in experiment [2]. The experiment in a line: FACS double labelling, peripheral blood lymphocytes of breast carcinoma patients.
Experiment [3] shares this target. Put plainly: FACS double labelling, peripheral blood lymphocytes of prostate carcinoma patients.
The target is the same in experiment [4]. The experiment in a line: FACS double labelling, peripheral blood lymphocytes of healthy individuals.

B1: mouse BAT antibody (antibody, V domains shown)
VH: QIQLVQSGPELKKPGETVKISCKASGYTFTNYGMNWVKQAPGKGLKWMGWINTDSGESTYAEEFKGRFAFSLETSANTAYLQINNLNNEDTATYFCVRVGYDALDYWGQGTSVTVSS
VL: QIVLTQSPAIMSASPGEKVTITCSARSSVSYMHWFQQKPGTSPKLWIYRTSNLASGVPARFSGSGSGTSYCLTISRMEAEDAATYYCQQRSSFPLTFGSGTKLEIK
As for B1, the percent of CD3+ BAT+ cells (of total CD3+ cells) in experiment [1] amounted to 7%; in experiment [2] it was 10%; in experiment [3], 50%; in experiment [4] it was 25%.

The values above are taken from patent US20030026800A1.
